Experimental findings from US20040208887A1 are described below.

For this assay, the target named is recombinant E2 (genotype 1a) (hepatitis C virus genotype 1a) (UniProt P26664). In words: ELISA, E2 coated as negative control antigen; crude periplasmic Fab. In general terms: In an ELISA, binding on a coated surface is turned into a signal by an enzyme label.
Sequence of recombinant E2 (genotype 1a) (hepatitis C virus genotype 1a) (P26664 384-715 limits assumed): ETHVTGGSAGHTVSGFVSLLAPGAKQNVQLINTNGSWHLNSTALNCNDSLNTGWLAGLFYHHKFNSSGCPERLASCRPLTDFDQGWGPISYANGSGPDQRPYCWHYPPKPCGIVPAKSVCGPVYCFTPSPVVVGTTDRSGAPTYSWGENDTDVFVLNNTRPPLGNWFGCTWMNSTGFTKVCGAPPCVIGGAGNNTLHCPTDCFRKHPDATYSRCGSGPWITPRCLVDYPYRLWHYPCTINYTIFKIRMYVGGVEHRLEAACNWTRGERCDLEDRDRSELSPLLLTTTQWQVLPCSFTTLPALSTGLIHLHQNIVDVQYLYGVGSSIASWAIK

B1: Fab clone 6a:5 (Fab, V domains shown)
VH: EVQLLESGPGLVKPSQTLSLTCAISGDNVSRKSAAWNWIRQSPSRGLEWLGRTYHMSKWYSVYATSLKSRININVDTSRNQFALQLRSVTPEDTAVYYCAREGPEWAVGGTYGMDVWGQGTTVTVSS
VL: AELTQSPDTLSLSPGERATLSCRASQSVNNNYLAWYQQKPGQAPRLLIYGASSRATGIPDRFSGSGSETDFTLTISRLEPEDFAVYYCQQYDSSRTFGQGTKVEIK
As to B1, the OD405 nm stood at 0.03 OD405 nm.

B2: Fab clone 4:6 (Fab, V domains shown)
VH: VQLLEQSGAEVKKPGASVKVSCKASGYTFTKYYLHWVRQAPGQGLEWMGFINPSGGSTSSAQKFQGRISMTRDTSTTTVYMEVNSVTSEDTAVYYCARVGRLGVGATGAFDLWGQGTMVTVSS
VL: AELTQSPSSLSASVGDRVTITCQASQDINYSLNWYQQKPGKPPKLLIYYASHSDTGVPSRFSGGGSGTRFTLTIYSLQPEDIATYYCQHFDHVPRYTFGPGTKVDLK
As for B2, the OD405 nm turned out to be 0.08 OD405 nm.
